Data published in patent publication US11702666B2, “Cell-based assay for determining activity in the retinoblastoma pathway” (Medical Diagnostic Laboratories, LLC, priority 2017, dated 2023).
Where two headings read alike, the source gives them in different places. Values belong to the molecule of their own block, whether it stands above or below them.

Assays:
Rb/E2F1-Dp-1 complex [1] = assay: CDK6 mutant activity / drug resistance in NanoBiT assay, stable cell line #11; assay type: cell-based, human; conditions: CDK6 mutants
Experimental: (§1) A linear expression cassette of mutated CDK4 or CDK6 was generated by PCR mediated overlapping extension method. A pair of forward and reverse primers containing the targeted mutations was designed. The mutated codon was located in the middle of a primer flanked by 18-21 nucleotides on each side. Two PCRs (named as PCR #1 and PCR #2 in FIG. 1) were performed using UF-CMV forward and mutated reverse primers, or mutated forward and BGH-UR primers. The PCR products were cleaned up by ExoSAP-IT® (Affymetrix) to remove unconsumed dNTPs and primers. The treated PCR products were mixed together followed by dilution with water. A second round of PCR was performed using the diluted PCR mixture, and the UF and UR primers (FIG. 1). The amplified products were gel-purified. The DNA concentration was quantitated by the optical density at 260 nm using Nanodrop. The targeted mutations were incorporated in the CDK4 or CDK6 genes during the PCR mediated overlapping extension method. The introduced mutations were confirmed by the DNA sequencing.
(§2) To examine the ability of the assay to detect variants in CDK4 or CDK6 that affect function, kinase dead mutants and COSMIC (Catalogue Of Somatic Mutations in cancer) unknown mutants were created. For comparison, hyperactive CDK4 or CDK6 mutants known to be hyperactive due to less binding to natural inhibitor p16 were also created. The mutations in CDK4 or CDK6 were created by site-directed mutagenesis. WT or mutated CDK4 or CDK6 along with the CyclinD1 and SB-Rb were co-transfected, under similar conditions as previously indicated (see FIG. 9).
(§3) Computer modeling was used to reveal the drug-binding pocket and predict drug-resistant mutants. The mutations in CDK4 and CDK6 were created by site-directed mutagenesis. WT or mutated CDK4 or CDK6 along with the CyclinD1 and SB-Rb was co-transfected into #11 cell line, under the same conditions as previously indicated. […] Dose response curves are presented on FIG. 13A and FIG. 13B. Activity of other mutants was very similar to the WT or KD.
(§4) CDK4 and CDK6 mutants with known function and unknown function taken from the COSMIC database were analyzed in the present assay and are summarized in Table 7A and Table 7B. The mutants were classified according to their activity. Table 7A and Table 7B also show the number of counts per mutant in the COSMIC database, type of cancer, and luciferase activity compared to the WT (being 100%).

CDK6 [2] = target: T1, CDK6 (Homo sapiens, UniProt Q00534, R31C); assay: p16 activity assay with CDK6 (NanoBiT, cell line #11); assay type: cell-based; conditions: compared to WT CDK6
T1 construct: expressed in transfected cells; host or cells: HEK293 CDK4/CDK6 double-knockout cells stably expressing E2F1-Dp-1-LB (clone #11); early experiments in plain HEK293
T1 sequence (Q00534 whole entry R31C): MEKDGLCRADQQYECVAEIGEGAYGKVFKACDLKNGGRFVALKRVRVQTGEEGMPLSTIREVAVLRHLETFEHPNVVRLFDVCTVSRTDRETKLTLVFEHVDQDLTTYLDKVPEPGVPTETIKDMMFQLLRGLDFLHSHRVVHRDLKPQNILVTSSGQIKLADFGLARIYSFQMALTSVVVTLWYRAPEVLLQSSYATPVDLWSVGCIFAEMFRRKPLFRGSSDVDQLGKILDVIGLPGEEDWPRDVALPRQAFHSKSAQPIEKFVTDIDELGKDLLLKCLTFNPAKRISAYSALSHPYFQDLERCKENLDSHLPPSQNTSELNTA
Description: (§5) We developed an assay that could measure the interaction between Rb, E2F1 and Dp-1. When the Rb and E2F1 proteins are in close proximity or in complex, a light signal is observed. For the purpose of the assay, split-luciferase complementation was used to measure the interaction between Rb and E2F1, which served as a surrogate measure of CDK4/6 activity and the ability of CDK4/6 to respond to the natural inhibitor p16. The NanoBiT assay system by Promega (Madison, Wis.; Dixon et al., 2015, ACS ChemBiol) was used in the split luciferase complementation design. FIG. 24 depicts a design of a signal system to measure p16 activity. Under basal conditions inside the cell, Rb is active and interacts with the E2F1/Dp-1 heterodimer. However, in the presence of the CDK4 or CDK6, Rb gets phosphorylated and released from the interacting complex. In the presence of the natural inhibitor p16, CDK4/6 is no longer available to phosphorylate Rb and thus promoting the Rb/E2F1-Dp-1 complex formation.
(§6) For the purpose of the current assay, the stable cell line #11 that we generated for the CDK activity assay was used and described above. HEK293 CDK DKO cells containing E2F1-Dp-1-LB was transiently transfected with CDK4/CDK6, CyclinD1, and SB-Rb. The transfected cells were then exposed to the natural inhibitor p16 (FIG. 25). […]

Rb/E2F1-Dp-1 complex [3] = conditions: CDK6 mutants, literature ref.; Hyper = hyperactive, KD = kinase dead; cited from earlier work
CDK6 [4] = target: T2, CDK6 (Homo sapiens, UniProt Q00534); assay: p16 activity assay with CDK6 (NanoBiT, cell line #11); assay type: cell-based; conditions: CDK6, CyclinD1, SB-Rb transfected cell line #11
T2 construct: expressed in transfected cells; host or cells: HEK293 CDK4/CDK6 double-knockout cells stably expressing E2F1-Dp-1-LB (clone #11); early experiments in plain HEK293
T2 sequence (Q00534 whole entry): as the sequence (Q00534 whole entry R31C) above, with C31R counted along it
Description: as §5, §6

CDK4 [5] = target: T3, CDK4 (Homo sapiens, UniProt P11802); assay: p16 activity assay with CDK4 (NanoBiT, cell line #11); assay type: cell-based; conditions: for Observed function: p16 (CDKN2A) mutants, with CDK4
T3 construct: expressed in transfected cells; host or cells: HEK293 CDK4/CDK6 double-knockout cells stably expressing E2F1-Dp-1-LB (clone #11); early experiments in plain HEK293
T3 sequence (P11802 2-303): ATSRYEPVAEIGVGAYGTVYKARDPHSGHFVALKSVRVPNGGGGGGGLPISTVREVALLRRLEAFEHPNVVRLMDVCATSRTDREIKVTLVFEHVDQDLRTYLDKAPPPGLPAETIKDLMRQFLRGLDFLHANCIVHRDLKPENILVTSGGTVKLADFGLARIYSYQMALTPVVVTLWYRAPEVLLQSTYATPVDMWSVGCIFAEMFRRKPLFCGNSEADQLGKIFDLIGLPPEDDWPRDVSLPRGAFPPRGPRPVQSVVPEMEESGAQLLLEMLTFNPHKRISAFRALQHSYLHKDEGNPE
Description: as §5
(§7) For the purpose of the current assay, the stable cell line #11 that we generated for the CDK activity assay was used and described above. HEK293 CDK DKO cells containing E2F1-Dp-1-LB was transiently transfected with CDK4/CDK6, CyclinD1, and SB-Rb. The transfected cells were then exposed to the natural inhibitor p16 (FIG. 25). When CDK4 or CDK6 is present, a decrease in activity was observed as Rb gets phosphorylated resulting in no Rb/E2F1-Dp-1 interaction. […] The data presented was a sample experiment where each condition was performed in triplicate and represented mean+SD.
(§8) The conditions of the assay were optimized by using different p16 amounts and cell numbers (FIGS. 25A and 25B). Based on the data generated, it was decided that using 0.2×10^6 cells/ml and 10 ng of p16 would be preferable.
(§9) To examine the ability of the assay to detect variants in CDKN2A that affect function, known loss of function mutants and unknown COSMIC mutants were created. Wild-type or mutated CDKN2A were prepared in a manner similar to that previously indicated. […] Therefore the p16 activity assay is capable of determining the relative activity level of p16 mutants. The data provided is in Luminescence (RLU) of a single experiment with each condition performed in triplicate and represent average+SD. Summary Table 13 reports p16 mutants tested.
(§10) In addition to check functional state of p16 mutants, p16 activity assay can be used to look at p16 inhibition response of different CDK4 and CDK6 mutants. Different response of WT CDK4 and CDK6 and hyperactive mutants of CDK4 (R24A) and CDK6 (R31C) is shown on FIG. 28. […] The p16 activity assay is so sensitive and specific that hyperactive CDK4 and CDK6 mutants can show different response to mutant p16.

CDK4 [6] = conditions: p16 (CDKN2A) mutants; cited from earlier work
Rb/E2F1-Dp-1 complex [7] = assay: CDK4 mutant activity / drug resistance in NanoBiT assay, stable cell line #11; assay type: cell-based, human; conditions: CDK4 mutants, compared to the WT (being 100%)
Experimental: as §1, §2
To examine the specificity of the assay, particular CDK4 kinase dead mutants were created. Modifications to D158 were made by changing aspartate to nonpolar alanine (D158A) or positively charged arginine (D158R). […] The mutations in CDK4 were created by site-directed mutagenesis. WT or mutated CDK4 along with the CyclinD1 and SB-Rb was co-transfected into the #11 cell line, under the same conditions as previously indicated. […] Kinase dead mutants have the high signal due to inability to phosphorylate Rb.
as §3, §4

Rb/E2F1-Dp-1 complex [8] = conditions: CDK4 mutants, literature ref.; Hyper = hyperactive, KD = kinase dead; cited from earlier work
CDK4 [9] = target: T4, CDK4 (Homo sapiens, UniProt P11802, R24A); assay: p16 activity assay with CDK4 (NanoBiT, cell line #11); assay type: cell-based; conditions: compared to WT CDK4
T4 construct: expressed in transfected cells; host or cells: HEK293 CDK4/CDK6 double-knockout cells stably expressing E2F1-Dp-1-LB (clone #11); early experiments in plain HEK293
Description: as §5, §7, §8, §9, §10

p16 inhibition response of hyperactive CDK6 mutant (luminescence) (CDK6 [2]): decreased level of luminescence
Molecule: CDK6 R31C: CDK6 mutant, literature hyperactive
Luc activity (/wt) (Rb/E2F1-Dp-1 complex [1]; compared to the WT (being 100%)): 66%
luciferase signal compared to WT CDK6 (in words) (Rb/E2F1-Dp-1 complex [1]; no drug): a little bit lower basal signal than WT
Reported activity (Rb/E2F1-Dp-1 complex [3]): Hyper

luminescence with treatment of p16 (CDK6 [4]): increase in luminescence
luminescence with treatment of p16 (CDK4 [5]; CDK4, CyclinD1, SB-Rb transfected cell line #11): increase in luminescence
Molecule: p16: cyclin-dependent kinase inhibitor 2A, natural inhibitor of CDK4 and CDK6, encoded by CDKN2A

Observed function (CDK4 [5]): Normal
B1: p16 A148T: p16 (CDKN2A) mutant (protein)
chain: MEPAAGSSMEPSADWLATAAARGRVEEVRALLEAGALPNAPNSYGRRPIQVMMMGSARVAELLLLHGAEPNCADPATLTRPVHDAAREGFLDTLVVLHRAGARLDVRDAWGRLPVDLAEELGHRDVARYLRAAAGGTRGSNHARIDATEGPSDIPD
Literature reported function (CDK4 [6]): Normal

Observed function (CDK4 [5]): Normal
B2: p16 R144C: p16 (CDKN2A) mutant (protein)
chain: MEPAAGSSMEPSADWLATAAARGRVEEVRALLEAGALPNAPNSYGRRPIQVMMMGSARVAELLLLHGAEPNCADPATLTRPVHDAAREGFLDTLVVLHRAGARLDVRDAWGRLPVDLAEELGHRDVARYLRAAAGGTRGSNHACIDAAEGPSDIPD
Literature reported function (CDK4 [6]): Normal

p16 inhibition response of hyperactive CDK4 mutant (luminescence) (CDK4 [9]): decreased level of luminescence
B3: CDK4 R24A: CDK4 mutant, literature hyperactive (protein)
chain: ATSRYEPVAEIGVGAYGTVYKAADPHSGHFVALKSVRVPNGGGGGGGLPISTVREVALLRRLEAFEHPNVVRLMDVCATSRTDREIKVTLVFEHVDQDLRTYLDKAPPPGLPAETIKDLMRQFLRGLDFLHANCIVHRDLKPENILVTSGGTVKLADFGLARIYSYQMALTPVVVTLWYRAPEVLLQSTYATPVDMWSVGCIFAEMFRRKPLFCGNSEADQLGKIFDLIGLPPEDDWPRDVSLPRGAFPPRGPRPVQSVVPEMEESGAQLLLEMLTFNPHKRISAFRALQHSYLHKDEGNPE
Luc. activity (/wt) (Rb/E2F1-Dp-1 complex [7]): 79%
Reported activity (Rb/E2F1-Dp-1 complex [8]): Hyper
